Experimental data published in article PMC11659164, “Inceptor binds to and directs insulin towards lysosomal degradation in β cells” (Nature Metabolism, 2024).
Blank lines part the entries; values can stand above or below the molecule they belong to.

Tests used:
[1] = target: His-tagged inceptor ectodomain (human) (UniProt Q6UXG2); experiment: native MS; charge detection mass spectrometry (CDMS), Orbitrap Q Exactive UHMR; inceptor ECD-His (5 µM) alone or with insulin at 1:6 and 1:20, or with proinsulin; 150 mM ammonium acetate, pH 3–7; 37 °C for 30 min
[2] = target: inceptor–HaloTag fusion protein (FRET experiments, INS-1E cells) (human) (UniProt Q6UXG2); experiment: FRET or BRET; live INS-1E cells overexpressing inceptor–HaloTag labelled with TMR; 100 nmol/l INS-630 and 0, 10, 100 and 1,000 nmol/l proinsulin in the medium for 40 min; corrected FRET efficiency by confocal imaging
[3] = target: the molecule itself; experiment: native MS; charge detection mass spectrometry (CDMS), Orbitrap Q Exactive UHMR; inceptor ECD-His (5 µM) alone or with insulin at 1:6 and 1:20, or with proinsulin; 150 mM ammonium acetate, pH 3–7; 37 °C for 30 min

N for each inceptor dimer [1]: 1 | stoichiometry N [1]: 1
Molecule: bovine proinsulin (ligand)

reduction of the FRET signal of inceptor to INS-630 at a 1:10 molar ratio of proinsulin to insulin [2]: 50%
Molecule: proinsulin (unlabelled, added to the medium in the FRET experiments) (ligand)

B1: His-tagged inceptor ectodomain (domain or fragment, human, UniProt Q6UXG2 42-910, looked up)
chain: TGPELHACKESEYHYEYTACDSTGSRWRVAVPHTPGLCTSLPDPIKGTECSFSCNAGEFLDMKDQSCKPCAEGRYSLGTGIRFDEWDELPHGFASLSANMELDDSAAESTGNCTSSKWVPRGDYIASNTDECTATLMYAVNLKQSGTVNFEYYYPDSSIIFEFFVQNDQCQPNADDSRWMKTTEKGWEFHSVELNRGNNVLYWRTTAFSVWTKVPKPVLVRNIAITGVAYTSECFPCKPGTYADKQGSSFCKLCPANSYSNKGETSCHQCDPDKYSEKGSSSCNVRPACTDKDYFYTHTACDANGETQLMYKWAKPKICSEDLEGAVKLPASGVKTHCPPCNPGFFKTNNSTCQPCPYGSYSNGSDCTRCPAGTEPAVGFEYKWWNTLPTNMETTVLSGINFEYKGMTGWEVAGDHIYTAAGASDNDFMILTLVVPGFRPPQSVMADTENKEVARITFVFETLCSVNCELYFMVGVNSRTNTPVETWKGSKGKQSYTYIIEENTTTSFTWAFQRTTFHEASRKYTNDVAKIYSINVTNVMNGVASYCRPCALEASDVGSSCTSCPAGYYIDRDSGTCHSCPTNTILKAHQPYGVQACVPCGPGTKNNKIHSLCYNDCTFSRNTPTRTFNYNFSALANTVTLAGGPSFTSKGLKYFHHFTLSLCGNQGRKMSVCTDNVTDLRIPEGESGFSKSITAYVCQAVIIPPEVTGYKAGVSSQPVSLADRLIGVTTDMTLDGITSPAELFHLESLGIPDVIFFYRSNDVTQSCSSGRSTTIRVRCSPQKTVPGSLLLPGTCSDGTCDGCNFHFLWESAAACPLCSVADYHAIVSSCVAGIQKTTYVWREPKLCSGGISLPEQRVTICKTIDFWLK
notes: signal peptide in the construct; ectodomain of human inceptor (KIAA1324), Uniprot entry Q6UXG2, residues 1–910; Seen as monomer and, prevalently, as dimer by CDMS; also called inceptor ECD-His; inceptor ECD-6×His; source: HEK293 (pCDNA3-inceptor ECD-6×His), purified
stoichiometry N [3]: 2
